Measured values from paper PMC10536470, “Reducing the virulence of Pseudomonas aeruginosa by using multiple quorum-quenching enzymes” (Journal of Industrial Microbiology & Biotechnology, 2023).

Test system: CCCCCCCCCC(=O)CC(=O)N[C@H]1CCOC1=O
Experiment: purified protein
Type: biochemical, Chryseobacterium sp. StRB126
Conditions: bicine 2.5 mM pH 8.0, 50 mM NaCl, 0.2 mM ZnCl2, 0.5% DMSO, 30 °C, substrate 0.2-2 mM

With AidC (Chryseobacterium sp. StRB126) the Km was 560 ± 10 µM and the kcat was 250 ± 18 s⁻¹.
